# Assay: soluble on expression in E. coli; label from the status in PepcDB or PDB records
row,Sequence,soluble on expression in E. coli
1,MDVNVNIDTNAEKQAISPYIYGTNQDFSNAKVTARRIGGNRSTGYNWENNDSNAGTDWKNESDNYWLTLYDVPKEKYNEPASVYTAFHDKSLAMGVPYSLVTLQAGGYVAADQSGPLANTDVAPSSKWKKVEFNKNGPLSLTPDTTDGSVYMDEFVNYLVNKYGSASGSKGIKGYSLDNEPSLWPSTHPLIHPDKTKCSEVLDKDTQLAQVVKKIDPAAETFGPALFGFSAFNDFNSSPDWSSVKGNYQWFIDYYLDNMKKNSDAAGKRLLDALDLHWYPEAKGGGQRVTTSDTSNVDCNKARMQAPRSLWDSTYTEDSWIGQWCKWGLPLIPKVKSSIDKYYPGTKLSFSEYNYGGEDHISGGIAQADALGVFGKYGVYFATYWECNSDKNNYVQSAFNLYNNYDGNNSKYGDTDVKCDTSDINNSSTYASVTSNDGNKMDIIVMNKNYTDSINFNFNVSSNKNYTSGQVWGFDSNSSNITKRDDVSSISGNKFTYKIPALTAVHIVLLEHHHHHH,soluble
2,MGSDKIHHHHHHSPTTTVTTTDASVTTTPPTTTPPTTAVVTDCTTCTAALITLTQGTDGAVDATPVEGVDATGCATITYTCENTPVDAQNVIFLTFYGGGIDRGVDQGTGSLNVLLNCVDGAWVRGGLVIDEILCQVI,not soluble
3,MSLDTDRILRAFASLVQATLRTNYFVTRQGSARCRDVLALKLNAQLIDELPLPRPRYEIFVYSPRVEGVHLRFGPVARGGLRWSDRRDDFRTEILGLVKAQAVKNAVIVPVGAKGGFVVKRPPLPTGDPAADRDATRAEGVACYQLFISGLLDVTDNVDHATASVNPPPEVVRRDGDDAYLVVAADKGTATFSDIANDVAKSYGFWLGDAFASGGSVGYDHKAMGITARGAWEAVKRHFREIGIDTQTQDFTVVGIGDMSGDVFGNGMLLSKHIRLIAAFDHRHIFLDPNPDAAVSWAERRRMFELPRSSWSDYDRSLISEGGGVYSREQKAIPLSAQVRAVLGIDGSVDGGAAEMAPPNLIRAILRAPVDLLFNGGIGTYIKAESESDADVGDRANDPVRVNANQVRAKVIGEGGNLGVTALGRVEFDLSGGRINTDALDNSAGVDCSDHEVNIKILIDSLVSAGTVKADERTQLLESMTDEVAQLVLADNEDQNDLMGTSRANAASLLPVHAMQIKYLVAERGVNRELEALPSEKEIARRSEAGIGLTSPELATLMAHVKLGLKEEVLATELPDQDVFASRLPRYFPTALRERFTPEIRSHQLRREIVTTMLINDLVDTAGITYAFRIAEDVGVTPIDAVRTYVATDAIFGVGHIWRRIRAANLPIALSDRLTLDTREGHHHHHH,not soluble
4,MTSGANSSGSYLPSEIRSSKIDDNYLKELNEDLKLRKQELLEMLKPLEDKNNLLFQKLMSNLEEKQRSLQIMRQIMAGKGCEESSVMELLKEAEEMKQNLERKNKMLRKEMEMLWNKTFEAEELSDQQKAPQTKNKADLQDGKEKQQRKMEWVKYQEQNNILQNDFHGKVIELRIEALKNYQKANDLKLSLYLQQNFEPMQAFLNLPGSQGIRIV,not soluble
5,MSLADVILHAFNWPYATVEARAKQIADAGYRKVLVAPAYRSEGSAWWARYQPQDIRLIDNPLGDTAAFKKMVQALASNGVETYADIVFNHMANEAATRSDLNYPGGAVLSQYAANPGRYDSLRLFGTLQSNFLSASDFGPAQCISNYNDAYQVRNYRICGGGSDPGLPDLLGNDWVVQQQRAYLQALKSMGVTGFRVDAAKHMTFDHLNRVFDAGIRSGVYVFGEVITGGGTGNGDYDQFLAPYLQSTPHAAYDFPLFNAVRNAFAIGASMQQLVDPAASGQALPGNRAVTFAVTHDIPNNAGFRYAILDPVDETLAYAYLIGRNGGMPMLYTDNNESGDNRWVNAYLRDDLRRMIGFHNGVQGTDMQVLSSSSCHILFRRGSLGIVGINKCGNPVTTTVGMNNSVLYWNADYVDALGSGNVVRISSSSYTFTLPARGARMWRREGHHHHHH,not soluble
6,MESKLEQNVTAMMSSTGASGITVADSEGVRLHSAGKITDMANVGSLMIADAKNMFPKGTRNKKNSYPIVTLHSSDGSKTTKFLFENLKILNVLFKNQQISYYLLQKPEISGFSYKKSVFFSNFLSENLKIF,soluble
7,MGSDKIHHHHHHMAHYEVKPSFYNYVFSPYLEPAIKVNPGDTVSLYTDDAFESRITSEDVSPKAAVRNAKFLNPQSGPVYINGAEPGDTLAVHFESIEFTRDWAVSCVMEYFGGLQSNSITKMLQKPLVEEVYIWKSKDKGQTWTNDKIGVTIPANPFCGTLATAPDTEAIQALTPGQFGGNMDCPDICPGHTIYLPVHNPGALFYIGDCHAAQGQGELCGVALEISAKATLKFDVIKNKVTNWPRIESPEKIMSVGSAKPMEDAARIAYADLIDWMVSDYGFKVLDAYELLTMVGGLYVANMVDTTYSLCASIEKKYLKRNS,not soluble
8,MSPRNDSTRKHRKSRSIKDDQHYPPVSFVGVESVGIIECPGSNHLSLASIPTTEFKIPDELALWVRGRIDNVAPKHPCDRRGQQPLAKKEISMNSSRSNSSFPARSPAIMTLMGGVPEAEKEYNVGKDGLLKVSKMMEGGKRYEVSANDRFTVFQQSAGQTCLFTFKA,not soluble
9,MGSDKIHHHHHHMKQLTMPLTALALFTLGGCVTNSDLDVVRRDLDELKNRQFQVEKEVGGVRTEATARIESSFKDLDTERAGVRKGLADLQAAMDGIKVDMQVLAGKVDDVGLAAKKPGDDLILLREDLERRLTAFDQRLAKAETGIEALQKKVAEQAPSPKETEKPTPEALYQKGLDAYRAGNYGVARESFTRFLEQHPKHELAANARYWTGETYYSEKKFEQAILEFQEVIKNYPGKEKVPAAMLKQAAAFSEIGDAKSARFVLRKLADDYPSSEEAKRAKDRLKELK,not soluble
10,MEDNIRIGKIILNLSNKISRQLNKEASAFGLTGVQAKLIGFIHHRSSTQDIFQKDIEEEFDIRRSSVTSALQLMEKKGYIKRVSVSDDARLKKIVLTEKGLELDKKVYDAIIKLENSLINEFDNDELHVLIDSLDRISKKIVDLEHHHHHH,soluble
11,MGSDKIHHHHHHMKVTLIGIDLAKNVFQVCGINQAGKSVFNRALKRSQLMAFLFKYPDSIIAMEACSGSNYWGRELLTKGFEVRLIPPQHVKPFVKGNKNDRNDAFAICEAALRPNLTFVQPRTLEQTDMILAHRIRERNVENRTSLINQIRGLLNEYGVVIAQGKERLKLAIPELLENADSGLTEIARQHFQALLEEWKQVDRTIKNLEKNIKSQAKLNHQTNRLMGIKGVAEITATAAVAFAGNGAQYHNGRHFAANLGLVPREYSSGGKQKLGKITKRGNNYLRRLLVQGAWSIIRYVGNSTDRMSVWAKKLIERRGKHKAAVAVANKLARIIWSMLYNQTEYRAN,not soluble
12,MAHHHHHHMGDESNAIGQEALLYDKMFRVMRTVGEMMCDRKYQVADKIIPSSVEEFKDWYTDPREGVIYRDRMTVPCERIGVSQRSRAMVFFSEGLSMETMKRYHTQASEANCDRVIIVVQGRINAIVKRHVEDINRSSLGLKIQLFDEDDLVVNITHHELVPKHTQLEDEEVKEMLQAHALELSALPRILSTDPVAAYLGLERGRVVRIERKSMSAGFYVTYRQVV,not soluble
13,MLKVAIAEDDFRVAQIQEEFLSKIKDVTVIGKALNAKETIELLQKEEIDLLLLDNYLPDGIGTDLLPQIHADFPNVDVIMVTAANENYMLEKAIRNGVSNYLIKPVTLEKFVRTIEDYKRKKQLLHSNNEVNQALIDNFFGTSQTQDIKNLPTGVDPLTLQKVKGIIKGFEEGITIEEMGEQMGASRTTARRYLEYLVATNECTVEYKYGIIGRPERKYRIGRGL,not soluble
14,MGKRSGASYRSRRPKLACADWDKRMMQTQPFRLPRFTPFGVIEKGVELATGLSQLERYYQQRPTTRDGFEFMRYTLEALNVHYQVDRGRVEQIPAQGPVVIVANHPLGAIEGVILADLVGQVRKDVKVLANQLLKRLPEIEPLFIGVDVFNGAQASKTNARGIREAHRHLAEGGVLIVFPAGEVSTPQKETGQLSDIDWSQSVAKFIQRSQARCVPIYIHGRNSAWFYRAGKIHPLLRTAMLGRELLNKSASTISLCIGQPIPYAELKEFTKDEDVVNYLRLNTYLMSPHGQVESAKVSFTIPVIDPVPKAALIAELAQLDKQAKLLEQGEFTVYCVPSTHIPLMMQEIGRVREISFRAVGEGSGQACDVDAYDHHYWQLFVWNREQSELVGAYRMGLVDKIVAERGLQGLYSRSLFHYDHAFLATLENAIELGRSVVAEQYQRNLNSLLLLWKGIARFVELNPHYTHLFGPVSISNDYSPAARQLMAATLSIHHYDQHKAALVSPSTPLRAGTEVFWQKSLLSALASVSLLSKVVARMEQGNGLPVLLRQYLGMNGKLVCLNVDPAFNDALDGLIVVNLKQVPLKTLAKYMGKEAAQHYLCSVT,not soluble
15,MNYTTEFKLGTDGLDVVPGATNTFEMPEGVIPSANATVYFYSGGMPESATANYTGAGNLWSFTSTNGIDSSAGAIRVEITQGRNFGDDPGLVTATATTRAWNEPPLVTVDQSVSGETKFAFSIPVGKPGNDGISAYAQAHAQGFNGSVDDWLESLRGANGKSAYELAVTQGFQGSSADWLNSLKGATGKSAYEVAVAQGFTGALAEWVESLKGVAGKSAYDIALDAGYKGSHLDWLNSLKGGKGDKGDHGKSAYQVAFDAGFSGTEAEWLESLKAPSAPAVGGYKELANGVLWYCRPRYNTGRCTVPDTGWGAYDYETAEHTTKFVIEDGLFEDHGCYVVPDASNLPTDDLRLRMTRGVNRGIHHAGRMTNRSDLVPPYSATTSYFIDRWAAKFYGWYYVMLSPQESAQFLADTDLEKIEVDVQPVTFSGVDVTNWAPGGTETYFLAKEQGLLVPIYKGASRHTVSATGETIVALWFRVGVYTHRSNIGSDNHSFDGINGEPDGWNLHDVDVKFWSTNVAQGMKFSAKIRN,not soluble
16,MLSQKLFEEISAKISETIAASPAKDIEKNVRAMMASTFSKMDLVTREEFDVQQAVLARTREKLAALESRLARLESQAFPDEAAAKVEEQSELGHS,not soluble
17,MAGFVPLRWPISRMSSAVPRYIVGIDLGTTHTVVSYADGGDPSRIEPLFLEQLVAPGQVAGRPLLPSVRYHPATGELAEADTALPWPVEETAPGCRPVIGEFARQLGSRSRGRLVASAKSWLCHTGVDRTADILPWGAPDEVPKVSPVEASASFLRHVRCAWNHRFPAHPLETQDVIVTIPASFDDAARALTVEAARRAGLANVRLLEEPQAACYDFLWTYRGRLAETLEGVNLLLVCDVGGGTTDFTLIRVDAGGSEPELERIAVGNHLMLGGDNIDLTLAHRLEPRLTGAERSLSATDLILLAEQCRRAKETLLAEQGPESVTVTLLGKGGGLIGGARSVELSRHEVLEVVLDGFFPRVGADAVPERRSGVVEFGLPYAADPAITRHAAAFLIRHRNDAGGAAPDALLLNGGVFHSPVIAGRMAEVVGSWCGRTPVMLRNPRPDQAVAFGAVAFGLSRRGLAVRRIGGGSARAYYLLVGDANERSRRGVCILPRGAAEGQEWTVERRNFLLSVGRPVRFHVFSSTVDSGHAPGDLAVLDEAGFGELPPLAVALQAQEQGDVEVRLAARLTAIGTLQLQCVAVGDPEQRWDLELQLRGGGPRPTASASLHPRAAEAQEHIGLIFGKKTRQFGPKAVKTLRNDLEKILGKREDWDTALCRELYAALLEGAPHRRRSADHERLWLSLAGYCLRPGFGAPLDDWRVGQVWNLYSQGLQFVNEAQNWSEWWIVWRRIAGGLRAEAQQRLFADVAGFIDPVRARRGNAEALAKKRAFEDMVRLAASLERLSAGDKTMLGGWLVQRLDKAPDSAELWWALGRVGARAPFHGSAHNLVAREVVEDWVELALQRDWKRQGFVAFAATLLARLTGDRERDLDATLRNRVAEKLVASSAPEIWLELVTEVRGLDASDEKRIFGEGLPPGLRLVDSAWGALEHHHHHH,not soluble
